Reference: US20120189572A1

Tests used:
[1] = biological target: mDR5ectm-td1, extracellular and transmembrane domains of murine DR5 fused to tetanus toxin fragment (mouse); assay: flow cytometry on SKOV3 cells transfected with murine DR5 (mDR5ectm-td1)
[2] = biological target: full length wild type human DR5 (human) (UniProt O14763); assay: cell-based or functional assay
UniProt O14763, sequence (O14763 other isoform, or with tags, fused parts or gaps limits assumed): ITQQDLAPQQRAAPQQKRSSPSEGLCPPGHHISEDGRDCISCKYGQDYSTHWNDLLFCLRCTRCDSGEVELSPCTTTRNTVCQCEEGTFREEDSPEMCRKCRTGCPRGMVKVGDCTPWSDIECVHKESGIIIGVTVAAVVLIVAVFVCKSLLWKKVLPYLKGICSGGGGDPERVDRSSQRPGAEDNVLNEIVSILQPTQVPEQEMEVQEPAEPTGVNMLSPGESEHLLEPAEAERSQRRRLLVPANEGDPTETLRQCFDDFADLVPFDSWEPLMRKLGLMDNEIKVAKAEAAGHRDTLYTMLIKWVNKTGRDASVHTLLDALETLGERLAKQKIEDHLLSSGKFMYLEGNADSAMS

How did the percent of cells stained [1] turn out when MD5-1, monoclonal antibody to mouse DR5 was run?
Its percent of cells stained is 100%.

With “human DR5 agonist monoclonal antibody mAb631 (clone 71903, MAB631; R&D Systems)” as the substance, how does the growth inhibition of SUM159 cells (MTT) at 1 µg/mL antibody [2] read?
The growth inhibition of SUM159 cells (MTT) at 1 µg/mL antibody was 36%.

And the growth inhibition of SUM159 cells (MTT) at 2 µg/mL antibody [2]?
Its growth inhibition of SUM159 cells (MTT) at 2 µg/mL antibody is 55%.

And the growth inhibition of SUM159 cells (MTT) at 4 µg/mL antibody [2]?
Its growth inhibition of SUM159 cells (MTT) at 4 µg/mL antibody is 65%.
